# Reference: patent CN113563464A (NAT CENTER FOR AIDS/STD CONTROL AND PREVENTION CHINA CDC, dated 2021)
# B1: SW-C11 (antibody, V domains shown)
# VH: EVQLVESGGGLIQPGGSLRLSCAASEFIVSRNYMSWVRQAPGTGLEWVSVIYPGGSTFYADSVKGRFTISRDNSKNTLYLQMDSLRVEDTAVYYCARDYGDFYFDYWGQGTLVTVSS
# VL: EIVMTQSPVSLSVSPGERATLSCRASQGVASNLAWYQQKAGQAPRLLIYGASTRATGIPARFSGSGSGTEFTLTISTLQSEDSAVYYCQQYNDRPRTFGQGTKLEIKR
# B2: WJQ-C11 (antibody, V domains shown)
# VH: EVQLVESGGGLVQPGGSLRLSCAASGFAFSTYEMNWVRQAPGKGLEWVSYIHNSGNPVYYADSVKGRFTISRDNAENSLYLQMNSLRAEDTAIYYCARALRYSTSWYDYWGQGTLVTVSS
# VL: EIVLTQSPVSLSLSPGERATLSCRASQSVSSYLAWYQQKPGQAPRLFIYDASKRATGIPARFSGSGSGTDFTLTISSLEPEDFAVYYCQQRSNWPRTFGQGTKVEIKR
# B3: WJQ-G10 (antibody, V domains shown)
# VH: EVQLVESGGGLVQPGESLRLSCAASGLTVSSNYMSWVRQAPGKGLEWVSVIYAGGSTFYADSVKGRFTISRDNSKNTLYLQMNSLRAEDMAIYYCARDLSYYGMDVWGQGTTVTVSS
# VL: DIQLTQFPFSLSASVGDRVTITCRASQGISTYLAWYQQKPGRAPKLLIYAASTLQSGVPSRFSGSGSGTEFTLTISSLQPEDFATYYCQLLNSYPVHFGQGTKLEIKR
# Target: SARS-Cov-2的生物素化RBD (RBD蛋白, NC_045512, 6×His-Avi标签) (SARS-CoV-2, UniProt P0DTC2 319-541)
row,Binder,Kd
1,B1,< 0.001 nM
2,B2,5.29 nM
3,B3,1.37 nM
